Experimental data published in patent US12365732 (23ANDME, dated 2025).

T1: cy-CD96 (soluble, extracellular domain) (cynomolgus monkey, UniProt P40200 22-516 (human entry), biotinylated in Octet and blocking ELISA)
T1 construct: the assays name only cy-CD96; also called biotinylated cy-CD96
T1 chain: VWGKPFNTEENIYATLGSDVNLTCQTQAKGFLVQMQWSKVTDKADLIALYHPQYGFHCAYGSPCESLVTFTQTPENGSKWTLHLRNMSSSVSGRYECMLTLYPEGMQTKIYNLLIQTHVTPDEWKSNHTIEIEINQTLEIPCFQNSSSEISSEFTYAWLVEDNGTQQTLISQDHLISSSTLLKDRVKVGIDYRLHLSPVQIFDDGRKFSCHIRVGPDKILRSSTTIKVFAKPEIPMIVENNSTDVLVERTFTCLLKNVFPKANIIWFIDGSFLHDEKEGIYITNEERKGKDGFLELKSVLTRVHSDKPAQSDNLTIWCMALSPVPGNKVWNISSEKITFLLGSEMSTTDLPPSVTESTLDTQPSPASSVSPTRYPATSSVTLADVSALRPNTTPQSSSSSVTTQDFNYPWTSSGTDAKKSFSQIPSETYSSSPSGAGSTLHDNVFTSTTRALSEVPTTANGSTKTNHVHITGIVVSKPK

T2: hu-CD96 (soluble, isoform 2 extracellular domain) (human, UniProt P40200 22-516, biotinylated in Octet and blocking ELISA)
T2 construct: the assays name only hu-CD96; also called hCD96; biotinylated hu-CD96
T2 sequence: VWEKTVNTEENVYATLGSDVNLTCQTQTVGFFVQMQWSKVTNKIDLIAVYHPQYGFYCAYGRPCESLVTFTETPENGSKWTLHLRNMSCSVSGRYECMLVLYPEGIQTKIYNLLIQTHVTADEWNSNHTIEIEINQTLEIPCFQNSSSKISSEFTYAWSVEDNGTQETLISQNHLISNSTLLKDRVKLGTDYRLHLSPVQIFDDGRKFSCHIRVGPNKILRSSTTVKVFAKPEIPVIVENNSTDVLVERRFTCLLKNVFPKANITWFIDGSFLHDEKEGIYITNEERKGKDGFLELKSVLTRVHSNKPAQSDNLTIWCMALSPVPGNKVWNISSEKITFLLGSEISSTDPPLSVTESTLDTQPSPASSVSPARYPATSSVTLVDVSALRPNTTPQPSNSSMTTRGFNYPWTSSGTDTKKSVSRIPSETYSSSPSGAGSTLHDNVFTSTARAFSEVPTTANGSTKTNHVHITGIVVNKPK


Legend:
[1] = molecular target: T1, cy-CD96 (soluble, extracellular domain); test: phage competition ELISA, soluble CD96 vs coated hu-CD96
Method: (§1) 192 colonies from most stringent selections (biotinylated 0.1 nM of hu-CD96 or cy-CD96 with 1000× non-biotinylated human or cy-CD96) were grown in 400 µL 2YT with 4 µL helper phage M13KO7 overnight at 37° C. with shaking. After spinning down the pellet, the phage supernatant was diluted 1:1 with 2 nM hu-CD96, 20 nM cy-CD96 and ELISA buffer (0.5% BSA and 0.05% TWEEN®20 in PBS) in total […] and incubated for two hours at room temperature with agitation. The […] of mixture was transferred to hu-CD96 coated plate for 15 min to capture unbound phage. The plate was washed with wash buffer (0.05% TWEEN®20 in PBS), and HRP-conjugated anti-M13 antibody (Sino biological, Cat #11973-MM05-H-50) was added in ELISA buffer for 30 min. […] Enzymatic color development was stopped using TMB stop solution (VWR, Cat #95059-200). Plates were analyzed with a SpectraMax i3X plate reader (Molecular Devices). The % inhibition was calculated by the $OD450$ of wells with hu-CD96/cy-CD96 competitor divided by $OD450$ of wells with buffer alone. The lower % inhibition indicated higher phage $IC50$ against hu-CD96 or cy-CD96.
(§2) Selected top inhibition % phage variants from single spot competition were purified from culture supernatants. The optimal phage concentration was incubated with serially-diluted hu-CD96 or cy-CD96 in ELISA buffer in NUNC F plate for two hours. The […] of the mixture was transferred to hu-CD96 coated wells for 15 min to capture unbound phage. The plate was washed with wash buffer (0.05% TWEEN®20 in PBS), and HRP-conjugated anti-M13 antibody (Sino biological, Cat #11973-MM05-H-50) was added in ELISA buffer for 30 min. The plates were washed and developed as described above. The absorbance at 450 nm was plotted as a function of antigen concentration in solution to determine phage $IC50$.

[2] = molecular target: T2, hu-CD96 (soluble, isoform 2 …); test: as above
Method: as §1, §2

[3] = molecular target: T1, cy-CD96 (soluble, extracellular domain); test: BLI (Octet), biotin-CD96 on SA, Fab analyte
Method: (§3) The binding affinity of the generated Fab variants of mAb1.v7 for hu-CD96 and cy-CD96 was determined by OCTET (Pall ForteBio) Bio-Layer Interferometry (BLI) binding analysis. The biotinylated hu-CD96 or biotinylated cy-CD96 was diluted to a final concentration 10 µg/mL in experimental buffer (PBS buffer with 0.01% Tween-20) and immobilized on the Streptavidin Capture (SA) biosensors (Pall ForteBio). Three-fold serial dilutions of the mAb1.v7 Fab variants starting at 1 µM as analytes were diluted in the experimental buffer (PBS buffer with 0.01% Tween-20). The biosensors were equilibrated in experimental buffer at 30° C. for ten minutes prior to starting the experiment. The kinetics experiment was performed with the following steps, where the step name, solution and time are listed: Baseline (buffer—60 seconds), Loading (biotinylated antigen—200 seconds), Baseline 2 (buffer—minimum 120 seconds), Association (analyte—200-300 seconds) and Dissociation (buffer—1000 seconds). The resulting BLI signal from analyte association and dissociation from the […] was analyzed using the Octet Data Analysis software (Pall ForteBio). First a reference subtraction was performed on all recorded traces using the reference well (biosensor that underwent same steps as experimental wells but no analyte for the Association step) and then all the traces were aligned to the beginning of the Association step. The entirety of the Association and Dissociation steps were used in a Global fit (minimum of four analyte concentration traces) in a 1:1 binding model to calculate the K_D values for the 16 selected individual mAb1.v7 Fab variants as summarized in Table 9 (below).

[4] = molecular target: T2, hu-CD96 (soluble, isoform 2 …); test: BLI (Octet), biotin-CD96 on SA, Fab analyte
Method: as §3

Binder	IC50 [1] [nM]	IC50 [2] [nM]	Kd [3] [nM]	Kd [4] [nM]
mAb1.v7.6 Fab (Fab, V domains shown, also called N32R/P52aV/T97L) VH: EVQLVQSGAEVKKPGASVKVSCKASGFTFTNRWMHWVRQAPGQGLEWIGMIHVNSGITNINEKFKNRVTMTTDTSTSTAYMELRSLRSEDTAVYYCRSDGLYEGYFDYWGQGTLVTVSS VL: DIQLTQSPSSLSASVGDRVTITCKASQNVGTAIVWYQQKPGKAPKVLIYSASTRYTGVPSRFSGSGSGTDFTLTISSLQPEDFATYYCQQYSSSPLTFGQGTKVEIK	0.15	0.16	284	28.4
mAb1.v7.21 Fab (Fab, V domains shown, also called N32Y/I59M/T97V) VH: EVQLVQSGAEVKKPGASVKVSCKASGFTFTNYWMHWVRQAPGQGLEWIGMIHPNSGITNMNEKFKNRVTMTTDTSTSTAYMELRSLRSEDTAVYYCRSDGVYEGYFDYWGQGTLVTVSS VL: DIQLTQSPSSLSASVGDRVTITCKASQNVGTAIVWYQQKPGKAPKVLIYSASTRYTGVPSRFSGSGSGTDFTLTISSLQPEDFATYYCQQYSSSPLTFGQGTKVEIK	0.91	0.15	118	0.31
mAb1.v7.11 Fab (Fab, V domains shown, Fab with 8xHis tag) VH: EVQLVQSGAEVKKPGASVKVSCKASGFTFTNNFMHWVRQAPGQGLEWIGMIHPNSGGTNINEKFKNRVTMTTDTSTSTAYMELRSLRSEDTAVYYCRSDETYEGYFDYWGQGTLVTVSS VL: DIQLTQSPSSLSASVGDRVTITCKASQNVGTAIVWYQQKPGKAPKVLIYSASTRYTGVPSRFSGSGSGTDFTLTISSLQPEDFATYYCQQYSSSPLTFGQGTKVEIK	0.24	0.23	175	156
mAb1.v7.8 Fab (Fab, V domains shown, also called M34D/N53L/T97V) VH: EVQLVQSGAEVKKPGASVKVSCKASGFTFTNNWDHWVRQAPGQGLEWIGMIHPLSGITNINEKFKNRVTMTTDTSTSTAYMELRSLRSEDTAVYYCRSDGVYEGYFDYWGQGTLVTVSS VL: DIQLTQSPSSLSASVGDRVTITCKASQNVGTAIVWYQQKPGKAPKVLIYSASTRYTGVPSRFSGSGSGTDFTLTISSLQPEDFATYYCQQYSSSPLTFGQGTKVEIK	0.45	0.17	104	27
mAb1.v7.24 Fab (Fab, V domains shown, also called M34G/P52aR/T97) VH: EVQLVQSGAEVKKPGASVKVSCKASGFTFTNNWGHWVRQAPGQGLEWIGMIHRNSGITNINEKFKNRVTMTTDTSTSTAYMELRSLRSEDTAVYYCRSDGIYEGYFDYWGQGTLVTVSS VL: DIQLTQSPSSLSASVGDRVTITCKASQNVGTAIVWYQQKPGKAPKVLIYSASTRYTGVPSRFSGSGSGTDFTLTISSLQPEDFATYYCQQYSSSPLTFGQGTKVEIK	0.6	0.2	118	0.31
mAb1.v7.14 Fab (Fab, V domains shown, also called T30V/I59T/T97I) VH: EVQLVQSGAEVKKPGASVKVSCKASGFTFVNNWMHWVRQAPGQGLEWIGMIHPNSGITNTNEKFKNRVTMTTDTSTSTAYMELRSLRSEDTAVYYCRSDGIYEGYFDYWGQGTLVTVSS VL: DIQLTQSPSSLSASVGDRVTITCKASQNVGTAIVWYQQKPGKAPKVLIYSASTRYTGVPSRFSGSGSGTDFTLTISSLQPEDFATYYCQQYSSSPLTFGQGTKVEIK	1	0.1	530	~0.1
mAb1.v7.19 Fab (Fab, V domains shown, also called N32S/I59R/T97I) VH: EVQLVQSGAEVKKPGASVKVSCKASGFTFTNSWMHWVRQAPGQGLEWIGMIHPNSGITNRNEKFKNRVTMTTDTSTSTAYMELRSLRSEDTAVYYCRSDGIYEGYFDYWGQGTLVTVSS VL: DIQLTQSPSSLSASVGDRVTITCKASQNVGTAIVWYQQKPGKAPKVLIYSASTRYTGVPSRFSGSGSGTDFTLTISSLQPEDFATYYCQQYSSSPLTFGQGTKVEIK	0.84	0.23	261	0.63
mAb1.v7.50 Fab (Fab, V domains shown, also called M34S/P52aR/T97V) VH: EVQLVQSGAEVKKPGASVKVSCKASGFTFTNNWSHWVRQAPGQGLEWIGMIHRNSGITNINEKFKNRVTMTTDTSTSTAYMELRSLRSEDTAVYYCRSDGVYEGYFDYWGQGTLVTVSS VL: DIQLTQSPSSLSASVGDRVTITCKASQNVGTAIVWYQQKPGKAPKVLIYSASTRYTGVPSRFSGSGSGTDFTLTISSLQPEDFATYYCQQYSSSPLTFGQGTKVEIK	0.9	0.1	183	4.16
mAb1.v7.10 Fab (Fab, V domains shown, also called M34R/N53L/T97V) VH: EVQLVQSGAEVKKPGASVKVSCKASGFTFTNNWRHWVRQAPGQGLEWIGMIHPLSGITNINEKFKNRVTMTTDTSTSTAYMELRSLRSEDTAVYYCRSDGVYEGYFDYWGQGTLVTVSS VL: DIQLTQSPSSLSASVGDRVTITCKASQNVGTAIVWYQQKPGKAPKVLIYSASTRYTGVPSRFSGSGSGTDFTLTISSLQPEDFATYYCQQYSSSPLTFGQGTKVEIK	0.76	0.19	117	2.71
mAb1.v7.15 Fab (Fab, V domains shown, also called M34D/N53M/T97F) VH: EVQLVQSGAEVKKPGASVKVSCKASGFTFTNNWDHWVRQAPGQGLEWIGMIHPMSGITNINEKFKNRVTMTTDTSTSTAYMELRSLRSEDTAVYYCRSDGFYEGYFDYWGQGTLVTVSS VL: DIQLTQSPSSLSASVGDRVTITCKASQNVGTAIVWYQQKPGKAPKVLIYSASTRYTGVPSRFSGSGSGTDFTLTISSLQPEDFATYYCQQYSSSPLTFGQGTKVEIK	1.85	0.19	160	3
